Data reported in US20250313635A1, “ANTI-INTEGRIN ANTIBODIES AND USES THEREOF” (Merck Sharp & Dohme LLC, priority 2022, published 2025).

Legend:
Type in all cases: biochemical
[1] = target: T1, mα5β1 (Mus musculus, UniProt P09055+P11688); assay: Mouse AlphaLISA integrin-ligand blocking assay (fibronectin); details: Table 12; read-out: IC50 Mouse integrin AlphaLISA assays mα5β1
T1 construct: The full extracellular domains for all α and β integrin subunits; (GGGS)3 linker (C); acidic coiled-coil with cysteine (C); GG-Avitag (C); hexa-histidine tag (C); basic coiled-coil with cysteine (C); made in house; host or cells: Expi293 cells
Protocol: (§1) Integrin AlphaLISA assay. In the AlphaLISA integrin assays, we used a HEPES based buffer (25 mM HEPES pH 7.4, 137 mM NaCl, 1 mM MgCl2, 1 mM MnCl2, 2 mM CaCl2, 2.7 mM KCl, and 0.05% Tween 20). Optimal assay conditions were determined with a titration of the reagents for signal noise ratio (S/N), linear range, etc. For the respective integrins, we used the final concentrations described in Table 9.
(§2) Briefly, the testing antibody (8 μL) was added as a 4×(of Final testing concentration) solution in the HEPES buffer described previously into a 384w AlphaPlate™ (Perkin Elmer #6005350). Then the integrin and ligand were added sequentially as 8×(4 μL each). Plates were sealed and incubated at room temperature for two hours. Then 4×acceptor bead solution ([…]) was added, and the plates were resealed and incubated at room temperature (RT) for one hour. Finally, 4×([…]) donor beads solution was added in a darkened room and incubated for 45 minutes at room temperature. Plates were read on the Envision (Perkin Elmer) in AlphaScreen™ mode within three hours of donor bead addition.

[2] = target: T2, mαvβ8 (Mus musculus, UniProt P43406+Q0VBD0); assay: Mouse AlphaLISA integrin-ligand blocking assay (LAP); details: Table 12; read-out: IC50 Mouse integrin AlphaLISA assays mαvβ8
T2 construct: The full extracellular domains for all α and β integrin subunits; (GGGS)3 linker (C); acidic coiled-coil with cysteine (C); GG-Avitag (C); hexa-histidine tag (C); basic coiled-coil with cysteine (C); made in house; host or cells: Expi293 cells
Protocol: as §1, §2

[3] = target: T3, mαvβ5 (Mus musculus, UniProt O70309+P43406); assay: Mouse AlphaLISA integrin-ligand blocking assay (vitronectin); details: Table 12; read-out: IC50 Mouse integrin AlphaLISA assays mαvβ5
T3 construct: The full extracellular domains for all α and β integrin subunits; (GGGS)3 linker (C); acidic coiled-coil with cysteine (C); GG-Avitag (C); hexa-histidine tag (C); basic coiled-coil with cysteine (C); made in house; host or cells: Expi293 cells
Protocol: as §1, §2

T2 sequence (P43406 31-988 limits assumed): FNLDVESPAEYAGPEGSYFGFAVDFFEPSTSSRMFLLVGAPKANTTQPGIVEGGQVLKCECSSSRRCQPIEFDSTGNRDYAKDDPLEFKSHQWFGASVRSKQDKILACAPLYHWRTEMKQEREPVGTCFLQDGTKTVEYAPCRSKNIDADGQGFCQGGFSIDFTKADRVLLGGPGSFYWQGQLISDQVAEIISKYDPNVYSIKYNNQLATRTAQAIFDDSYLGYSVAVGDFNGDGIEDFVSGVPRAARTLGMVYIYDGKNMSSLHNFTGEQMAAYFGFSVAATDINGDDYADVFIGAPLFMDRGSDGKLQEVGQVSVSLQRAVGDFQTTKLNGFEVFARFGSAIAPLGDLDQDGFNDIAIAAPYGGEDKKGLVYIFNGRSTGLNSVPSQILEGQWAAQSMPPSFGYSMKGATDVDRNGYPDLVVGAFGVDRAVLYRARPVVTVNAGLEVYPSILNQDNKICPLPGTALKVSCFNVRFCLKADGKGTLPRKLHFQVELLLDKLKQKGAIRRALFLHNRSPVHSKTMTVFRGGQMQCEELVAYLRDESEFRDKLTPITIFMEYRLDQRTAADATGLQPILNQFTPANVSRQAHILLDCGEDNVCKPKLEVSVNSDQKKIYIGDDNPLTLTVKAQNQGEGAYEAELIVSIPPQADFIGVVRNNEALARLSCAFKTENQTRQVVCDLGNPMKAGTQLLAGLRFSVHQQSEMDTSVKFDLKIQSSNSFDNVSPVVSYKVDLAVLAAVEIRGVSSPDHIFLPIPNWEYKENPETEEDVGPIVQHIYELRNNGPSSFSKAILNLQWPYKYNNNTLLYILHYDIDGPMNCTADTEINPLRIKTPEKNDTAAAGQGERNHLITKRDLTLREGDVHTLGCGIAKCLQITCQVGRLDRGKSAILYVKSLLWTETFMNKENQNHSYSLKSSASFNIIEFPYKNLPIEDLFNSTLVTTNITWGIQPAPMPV
T2 sequence (Q0VBD0 22-681 limits assumed): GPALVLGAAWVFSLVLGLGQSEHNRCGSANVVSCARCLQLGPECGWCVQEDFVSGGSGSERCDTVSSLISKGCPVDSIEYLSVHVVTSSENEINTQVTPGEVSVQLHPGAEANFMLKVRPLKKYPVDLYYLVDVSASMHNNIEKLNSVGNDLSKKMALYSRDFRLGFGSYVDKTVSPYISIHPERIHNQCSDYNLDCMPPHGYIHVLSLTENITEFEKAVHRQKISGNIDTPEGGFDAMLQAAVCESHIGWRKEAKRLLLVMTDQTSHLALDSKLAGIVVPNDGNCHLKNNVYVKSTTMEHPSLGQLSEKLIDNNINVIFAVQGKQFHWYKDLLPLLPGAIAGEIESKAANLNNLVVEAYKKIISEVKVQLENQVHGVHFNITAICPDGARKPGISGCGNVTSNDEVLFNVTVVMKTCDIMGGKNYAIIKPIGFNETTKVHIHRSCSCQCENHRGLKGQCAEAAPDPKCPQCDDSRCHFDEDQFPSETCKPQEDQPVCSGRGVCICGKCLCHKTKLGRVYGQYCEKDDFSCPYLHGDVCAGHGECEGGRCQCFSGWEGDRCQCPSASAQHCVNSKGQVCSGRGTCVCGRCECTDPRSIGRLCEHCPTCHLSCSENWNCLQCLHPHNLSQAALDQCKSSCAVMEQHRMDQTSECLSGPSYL
T1 sequence (P11688 45-999 limits assumed): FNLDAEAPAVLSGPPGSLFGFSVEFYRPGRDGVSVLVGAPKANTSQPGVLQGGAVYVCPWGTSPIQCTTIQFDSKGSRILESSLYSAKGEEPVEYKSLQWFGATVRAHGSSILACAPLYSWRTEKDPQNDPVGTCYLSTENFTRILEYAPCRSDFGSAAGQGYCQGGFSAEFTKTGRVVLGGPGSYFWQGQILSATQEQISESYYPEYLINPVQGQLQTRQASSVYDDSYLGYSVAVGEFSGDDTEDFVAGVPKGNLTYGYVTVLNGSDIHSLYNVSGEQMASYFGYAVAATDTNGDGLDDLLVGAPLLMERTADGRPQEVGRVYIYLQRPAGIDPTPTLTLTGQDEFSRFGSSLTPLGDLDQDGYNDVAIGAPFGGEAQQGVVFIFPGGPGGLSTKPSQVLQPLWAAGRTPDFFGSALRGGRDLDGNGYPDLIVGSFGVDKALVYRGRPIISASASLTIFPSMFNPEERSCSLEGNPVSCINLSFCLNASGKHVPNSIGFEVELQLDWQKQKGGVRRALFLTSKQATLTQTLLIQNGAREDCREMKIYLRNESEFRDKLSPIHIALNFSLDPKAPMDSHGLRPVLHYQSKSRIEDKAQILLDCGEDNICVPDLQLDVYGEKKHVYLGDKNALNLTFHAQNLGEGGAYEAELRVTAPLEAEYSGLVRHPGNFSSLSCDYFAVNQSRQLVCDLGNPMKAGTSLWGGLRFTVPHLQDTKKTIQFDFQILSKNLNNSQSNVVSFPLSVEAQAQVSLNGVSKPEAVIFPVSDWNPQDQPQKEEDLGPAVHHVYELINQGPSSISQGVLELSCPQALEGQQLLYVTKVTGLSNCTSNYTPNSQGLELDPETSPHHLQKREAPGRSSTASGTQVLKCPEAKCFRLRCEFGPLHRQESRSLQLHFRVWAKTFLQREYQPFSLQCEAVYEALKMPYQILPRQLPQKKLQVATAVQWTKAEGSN
T1 sequence (P09055 21-728 limits assumed): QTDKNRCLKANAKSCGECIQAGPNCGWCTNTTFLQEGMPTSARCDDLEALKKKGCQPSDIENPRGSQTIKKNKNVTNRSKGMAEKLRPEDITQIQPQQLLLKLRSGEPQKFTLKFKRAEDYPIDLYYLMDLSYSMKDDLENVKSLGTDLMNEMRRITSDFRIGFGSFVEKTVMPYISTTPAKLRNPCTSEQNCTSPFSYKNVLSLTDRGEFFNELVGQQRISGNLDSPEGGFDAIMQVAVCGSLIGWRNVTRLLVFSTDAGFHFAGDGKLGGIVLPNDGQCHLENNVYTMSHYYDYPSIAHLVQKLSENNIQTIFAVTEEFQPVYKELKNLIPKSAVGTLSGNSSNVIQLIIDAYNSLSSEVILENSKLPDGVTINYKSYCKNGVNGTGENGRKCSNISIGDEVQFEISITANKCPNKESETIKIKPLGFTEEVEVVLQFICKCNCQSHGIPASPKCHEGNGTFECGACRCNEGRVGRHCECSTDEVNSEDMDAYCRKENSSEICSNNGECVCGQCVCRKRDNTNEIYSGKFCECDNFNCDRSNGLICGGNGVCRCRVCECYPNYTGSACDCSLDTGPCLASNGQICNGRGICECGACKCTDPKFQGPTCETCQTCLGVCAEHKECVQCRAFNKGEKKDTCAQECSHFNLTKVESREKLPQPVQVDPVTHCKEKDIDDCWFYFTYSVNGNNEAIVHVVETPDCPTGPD
T3 sequence (P43406 31-988 limits assumed): as the sequence (P43406 31-988 limits assumed) above
T3 sequence (O70309 24-719 limits assumed): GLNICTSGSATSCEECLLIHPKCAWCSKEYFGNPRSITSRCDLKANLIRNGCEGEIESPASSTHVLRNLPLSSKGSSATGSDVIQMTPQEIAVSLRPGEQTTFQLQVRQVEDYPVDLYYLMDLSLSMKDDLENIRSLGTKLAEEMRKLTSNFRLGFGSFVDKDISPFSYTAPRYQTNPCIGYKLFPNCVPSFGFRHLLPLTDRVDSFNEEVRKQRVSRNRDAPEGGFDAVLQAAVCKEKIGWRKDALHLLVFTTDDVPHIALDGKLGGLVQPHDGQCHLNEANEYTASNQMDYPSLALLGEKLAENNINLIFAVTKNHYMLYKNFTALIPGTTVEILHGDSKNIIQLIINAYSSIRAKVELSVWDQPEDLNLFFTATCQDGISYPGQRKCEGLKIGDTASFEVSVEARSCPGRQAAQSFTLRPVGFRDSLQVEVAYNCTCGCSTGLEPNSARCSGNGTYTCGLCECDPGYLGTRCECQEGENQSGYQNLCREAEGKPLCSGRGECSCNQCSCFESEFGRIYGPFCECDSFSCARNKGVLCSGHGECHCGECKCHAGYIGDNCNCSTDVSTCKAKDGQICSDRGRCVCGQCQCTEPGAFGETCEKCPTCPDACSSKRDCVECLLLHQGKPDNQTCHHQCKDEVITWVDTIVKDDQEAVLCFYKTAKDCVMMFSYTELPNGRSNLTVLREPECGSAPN

Row | IC50 [1] | IC50 [2] | IC50 [3] | Molecule
1 | > 250 nM | 71.9 nM | > 250 nM | Ab-32: integrin binder antibody, VH SEQ ID NO: 37, VL SEQ ID NO: 38 (antibody, V domains shown) VH: EVQLQESGPGLVKPSETLSLTCAVSGYSISSGYYWGWIRQPPGKGLEWIGSIYHSGNTYYNPSLKSRVTISVDTSKNQFSLKLSSVTAADTAVYYCARVPRYSRGDAYYYYGMDVWGQGTTVTVSS VL: EIVLTQSPGTLSLSPGERATLSCRASQSVRSSYLAWYQQKPGQAPRLLIYGASSRATGIPDRFSGSGSGTDFTLTISRLEPEDFAVYYCQQAGLVFTFGGGTKVEIK
2 | > 250 nM | 25.1 nM | > 250 nM | Ab-30: integrin binder antibody, VH SEQ ID NO: 33, VL SEQ ID NO: 34 (antibody, V domains shown) VH: EVQLQESGPGLVKPSETLSLTCAVSGYSISSGYYWGWIRQPPGKGLEWIGSIYHSGNTYYNPSLKSRVTISVDTSKNQFSLKLSSVTAADTAVYYCARVPRYSRGDAYYYYGMDVWGQGTTVTVSS VL: DIQMTQSPSTLSASVGDRVTITCRASQSISSWLAWYQQKPGKAPKLLIYKASSLESGVPSRFSGSGSGTEFTLTISSLQPDDFATYYCQQVKIYPPYTFGGGTKVEIK
3 | > 250 nM | 24.7 nM |  | Ab-33: integrin binder antibody, VH SEQ ID NO: 39, VL SEQ ID NO: 40 (antibody, V domains shown) VH: EVQLVQSGAEVKKPGSSVKVSCKASGGTFSNYAISWVRQAPGQGLEWMGGIIPIFGTANYAQKFQGRVTITADESTSTAYMELSSLRSEDTAVYYCARAPRSARGDMYYYYYGMDVWGQGTTVTVSS VL: DIQMTQSPSTLSASVGDRVTITCRASQSIGSWLAWYQQKPGKAPKLLIYKASSLESGVPSRFSGSGSGTEFTLTISSLQPDDFATYYCQQYGRYPWTFGGGTKVEIK
